Measurements taken from publication PMC10527986.

Legend:
[1] = molecular target: hMPV pre-fusion F protein (A2 strain; A185P, A113C/A339C, RRRR furin site) (human metapneumovirus, A2 strain) (UniProt Q6WB98); experiment: SEC
[2] = molecular target: hMPV pre-fusion F protein (A2 strain; A185P, A113C/A339C, RRRR furin site) (human metapneumovirus, A2 strain) (UniProt Q6WB98); experiment: cryo-EM structure

hMPV pre-fusion F protein (A2 strain; A185P, A113C/A339C, RRRR furin site) (from UniProt Q6WB98 19-539) (natural protein)
stoichiometry N [1]: 3 | stoichiometry N [2]: 2
